Test results as given in publication PMC8657904.

Legend:
[1] = target: CmbHLH2.1 (alternative splicing variant of CmbHLH2) from chrysanthemum 'Jimba', GAL4 DNA-binding domain fusion (Chrysanthemum x morifolium 'Jimba')
[2] = target: CmbHLH2 from chrysanthemum 'Jimba', GAL4 DNA-binding domain fusion (Chrysanthemum x morifolium 'Jimba')
Sequence of CmbHLH2 from chrysanthemum 'Jimba', GAL4 DNA-binding domain fusion (Chrysanthemum x morifolium 'Jimba') (main, as listed by the source): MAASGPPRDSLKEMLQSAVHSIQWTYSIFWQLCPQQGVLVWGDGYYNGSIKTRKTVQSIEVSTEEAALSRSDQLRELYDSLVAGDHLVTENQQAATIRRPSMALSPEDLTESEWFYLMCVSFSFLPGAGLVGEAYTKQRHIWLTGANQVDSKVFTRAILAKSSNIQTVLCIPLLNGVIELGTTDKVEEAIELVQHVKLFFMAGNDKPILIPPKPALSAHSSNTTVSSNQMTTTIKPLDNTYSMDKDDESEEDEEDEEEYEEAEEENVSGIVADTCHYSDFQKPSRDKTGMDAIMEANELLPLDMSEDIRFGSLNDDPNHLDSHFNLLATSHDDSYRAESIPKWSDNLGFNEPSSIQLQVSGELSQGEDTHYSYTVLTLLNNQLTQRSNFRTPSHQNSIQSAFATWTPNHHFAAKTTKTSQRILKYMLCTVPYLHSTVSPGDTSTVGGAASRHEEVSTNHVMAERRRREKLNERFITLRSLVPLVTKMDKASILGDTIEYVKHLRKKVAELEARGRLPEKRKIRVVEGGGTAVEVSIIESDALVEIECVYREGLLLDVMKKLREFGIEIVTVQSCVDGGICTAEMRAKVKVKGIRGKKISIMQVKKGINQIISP

Sequence of CmbHLH2.1 (alternative splicing variant of CmbHLH2) from chrysanthemum 'Jimba', GAL4 DNA-binding domain fusion (Chrysanthemum x morifolium 'Jimba') (main, as listed by the source mutant): as the sequence (main, as listed by the source) above

dual-luciferase assay in Nicotiana benthamiana leaves: fold-induced activation of the CmDFR promoter by CmMYB6 together with CmbHLH2.1, compared to empty vector [1]: > 10 times
dual-luciferase assay in Nicotiana benthamiana leaves: fold-induced activation of the CmDFR promoter by CmMYB6 together with CmbHLH2, compared to empty vector [2]: > 40 times
Substance: CmMYB6 (transcript20734) from chrysanthemum 'Jimba', GAL4 activation domain fusion (natural protein)
